Test results: the Immune Epitope Database (IEDB)

How the values were obtained:
HLA-B*44:03 = test: IEDB peptide-MHC binding, purified MHC/competitive/radioactivity; filed as Kd, often an IC50 or EC50 that approximates it; ≥ and ≤ were set here for values at or beyond the usual limits of such assays
HLA-B*44:02 [1] = test: as above
HLA-A*02:01 [2] = test: as above
HLA-A*26:01 [3] = test: IEDB peptide-MHC binding, purified MHC/competitive/fluorescence; filed as Kd, often an IC50 or EC50 that approximates it; ≥ and ≤ were set here for values at or beyond the usual limits of such assays; conditions: source organism: Influenza A virus (A/Waikato/7/2000(H3N2))
HLA-B*40:01 [4] = test: IEDB peptide-MHC binding, purified MHC/competitive/radioactivity; filed as Kd, often an IC50 or EC50 that approximates it; ≥ and ≤ were set here for values at or beyond the usual limits of such assays
HLA-A*24:02 = test: IEDB peptide-MHC binding, purified MHC/competitive/fluorescence; ≥ and ≤ were set here for values at or beyond the usual limits of such assays
HLA-A*02:01 [5] = test: as above
HLA-B*27:05 = test: IEDB peptide-MHC binding, purified MHC/direct/fluorescence; filed as Kd, often an IC50 or EC50 that approximates it; ≥ and ≤ were set here for values at or beyond the usual limits of such assays
HLA-A*26:01 [6] = test: as above
HLA-B*40:01 [7] = test: as above
HLA-A*31:01 = test: as above
HLA-A*11:01 = test: as above
HLA-A*69:01 = test: as above
HLA-B*15:01 = test: as above
HLA-A*02:01 [8] = test: as above
HLA-B*58:01 = test: as above
HLA-A*24:03 = test: as above
HLA-B*08:01 = test: as above
HLA-B*07:02 [9] = test: as above
HLA-A*03:01 = test: as above
HLA-B*44:02 [10] = test: as above
HLA-B*07:02 [11] = test: IEDB peptide-MHC binding, purified MHC/competitive/radioactivity; filed as Kd, often an IC50 or EC50 that approximates it; ≥ and ≤ were set here for values at or beyond the usual limits of such assays; conditions: source organism: Vaccinia virus Copenhagen
HLA-A*01:01 = test: IEDB peptide-MHC binding, purified MHC/direct/fluorescence; filed as Kd, often an IC50 or EC50 that approximates it; ≥ and ≤ were set here for values at or beyond the usual limits of such assays; conditions: source organism: Rickettsia prowazekii
HLA-A*02:02 = test: IEDB peptide-MHC binding, purified MHC/competitive/radioactivity; filed as Kd, often an IC50 or EC50 that approximates it; ≥ and ≤ were set here for values at or beyond the usual limits of such assays; conditions: source organism: Homo sapiens
[12] = source organism: Dengue virus 3 Martinique/1243/1999
[13] = source organism: Dengue virus 1 Singapore/S275/1990
[14] = source organism: Triticum aestivum
[15] = source organism: Dengue virus 4 Dominica/814669/1981
[16] = source organism: Zaire ebolavirus
[17] = source organism: Dengue virus 1 Brazil/97-11/1997
[18] = source organism: Sudan ebolavirus
[19] = source organism: Dengue virus 2 Jamaica/1409/1983
[20] = source organism: Giardia intestinalis
[21] = source organism: Rickettsia prowazekii
[22] = source organism: Dengue virus 4 Philippines/H241/1956
[23] = source organism: Vaccinia virus Copenhagen

ADMGCVINW gave a Kd (HLA-B*44:03; [12]) of 0.11 µM and a Kd (HLA-B*44:02 [1]; [12]) of 0.0928 µM.
In the case of AEHSGASHNI, the Kd (HLA-B*44:03; [13]) is reported as 0.502 µM and the Kd (HLA-B*44:02 [1]; [13]) is reported as 0.0786 µM.
AIHNVVHAI gave a Kd (HLA-A*02:01 [2]; [14]) of 0.166 µM.
DTVHDRTPY gave a Kd (HLA-A*26:01 [3]) of 0.0414 µM.
Sequence EEIDKKDGDL has a Kd (HLA-B*40:01 [4]; [15]) of 1.89 µM and a Kd (HLA-B*44:03; [15]) of 0.421 µM.
For ELCCQHLWQI, the Kd (HLA-A*02:01 [2]; [14]) was 5.55 µM.
In the case of ELSGYCSNI, the Kd (HLA-A*02:01 [2]; source organism: Lassa virus GA391) is reported as 12.5 µM.
EYLFEVDNL gave an IC50 (HLA-A*24:02; [16]) of 0.402 µM and an IC50 (HLA-A*02:01 [5]; [16]) of 43.7 µM.
For FEATARGARR, the Kd (HLA-B*40:01 [4]; [17]) was 1.9 µM.
With FFLWVIILF the IC50 (HLA-A*24:02; [16]) was 53 µM and the IC50 (HLA-A*02:01 [5]; [16]) was 7.45 µM.
Work on FFVWVIILF yielded an IC50 (HLA-A*24:02; [18]) of 1.51 µM.
With GEFGKAKGS the Kd (HLA-B*44:03; [19]) was 4.16 µM.
For GIAWIPYFG, the IC50 (HLA-A*24:02; [18]) was at least 76.2 µM and the IC50 (HLA-A*02:01 [5]; [18]) was 2.72 µM.
GIFEDRAPV showed a Kd (HLA-A*02:01 [2]; source organism: Human alphaherpesvirus 1 strain 17) of 0.5 µM.
Work on GYTPGQQFY yielded a Kd (HLA-B*27:05; [20]) of at least 20 µM, a Kd (HLA-A*26:01 [6]; [20]) of at least 20 µM and a Kd (HLA-B*40:01 [7]; [20]) of at least 20 µM. The Kd (HLA-A*31:01; [20]) was at least 20 µM, the Kd (HLA-A*11:01; [20]) was at least 20 µM and the Kd (HLA-A*69:01; [20]) was at least 20 µM. For the same sequence, the Kd (HLA-B*15:01; [20]) was at least 20 µM, the Kd (HLA-A*02:01 [8]; [20]) was at least 20 µM and the Kd (HLA-B*58:01; [20]) was at least 20 µM. The Kd (HLA-A*24:03; [20]) was 5.42 µM, the Kd (HLA-B*08:01; [20]) was at least 20 µM and the Kd (HLA-B*07:02 [9]; [20]) was at least 20 µM. It also gave a Kd (HLA-A*03:01; [20]) of at least 20 µM and a Kd (HLA-B*44:02 [10]; [20]) of at least 20 µM.
IEQMANGIAL gave a Kd (HLA-B*40:01 [4]; [12]) of 0.00257 µM.
IEVKTCIWPK gave a Kd (HLA-B*40:01 [4]; [17]) of 2.91 µM.
ILMDSIFVST showed a Kd (HLA-B*07:02 [11]) of at least 69.6 µM.
IYSAEFKNY was tested, and the Kd (HLA-A*01:01) was at least 20 µM, the Kd (HLA-B*27:05; [21]) was at least 20 µM and the Kd (HLA-A*26:01 [6]; [21]) was at least 20 µM. For the same sequence, the Kd (HLA-B*40:01 [7]; [21]) was at least 20 µM, the Kd (HLA-A*31:01; [21]) was at least 20 µM and the Kd (HLA-A*11:01; [21]) was at least 20 µM. For the same sequence, the Kd (HLA-A*69:01; [21]) was at least 20 µM, the Kd (HLA-B*15:01; [21]) was 20 µM and the Kd (HLA-A*02:01 [8]; [21]) was at least 20 µM. For the same sequence, the Kd (HLA-B*58:01; [21]) was at least 20 µM, the Kd (HLA-A*24:03; [21]) was 1.41 µM and the Kd (HLA-B*08:01; [21]) was at least 20 µM. The Kd (HLA-B*07:02 [9]; [21]) was at least 20 µM, the Kd (HLA-A*03:01; [21]) was at least 20 µM and the Kd (HLA-B*44:02 [10]; [21]) was at least 20 µM.
KELKCGSGIF showed a Kd (HLA-B*44:02 [1]; [19]) of 0.0336 µM.
KLEEEQIIL showed a Kd (HLA-A*02:01 [2]; source organism: Homo sapiens) of 0.0721 µM and a Kd (HLA-A*02:02) of 0.0735 µM.
With LDKITDFHE the IC50 (HLA-A*24:02; source organism: Variola virus) was 24.2 µM.
LEENMEVEIW showed a Kd (HLA-B*44:03; [22]) of 0.257 µM and a Kd (HLA-B*44:02 [1]; [22]) of 0.225 µM.
With LHSLSVETI the IC50 (HLA-A*24:02; [23]) was 13 µM and the IC50 (HLA-A*02:01 [5]; [23]) was at least 195 µM.
LLMWITQCFL gave a Kd (HLA-A*02:01 [2]; source organism: Homo sapiens) of 0.043 µM.
